Reference: patent US20210292396A1 (INTERNATIONAL AIDS VACCINE INITIATIVE, published 2021)

Tests used:
Assay in all cases: cell-based or functional assay
[1] = molecular target: HIV Env of isolate 928-28 (HIV)
[2] = molecular target: HIV Env of isolate C1080.c03 (HIV)
[3] = molecular target: HIV Env of isolate C3347.c11 (HIV)
HIV Env of isolate CNE8 = HIV Env of isolate CNE8 (HIV)
[4] = molecular target: HIV Env of isolate BJOX028000.10.3 (HIV)
[5] = molecular target: HIV Env of isolate X2088_c9 (HIV)
[6] = molecular target: HIV Env of isolate X2131_C1_B5 (HIV)
[7] = molecular target: HIV Env of isolate 3301.v1.c24 (HIV)
[8] = molecular target: HIV Env of isolate 6041.v3.c23 (HIV)
[9] = molecular target: HIV Env of isolate 6545.v4.c1 (HIV)
[10] = molecular target: HIV Env of isolate 3103.v3.c10 (HIV)
[11] = molecular target: HIV Env of isolate 6535.3 (HIV)
[12] = molecular target: HIV Env of isolate QH0692.42 (HIV)
[13] = molecular target: HIV Env of isolate AC10.0.29 (HIV)
[14] = molecular target: HIV Env of isolate RHPA4259.7 (HIV)
[15] = molecular target: HIV Env of isolate CAAN5342.A2 (HIV)
[16] = molecular target: HIV Env of isolate WEAU_d15_410_5017 (HIV)
[17] = molecular target: HIV Env of isolate 1006_11_C3_1601 (HIV)
[18] = molecular target: HIV Env of isolate 1056_10_TA11_1826 (HIV)
[19] = molecular target: HIV Env of isolate 1012_11_TC21_3257 (HIV)
[20] = molecular target: HIV Env of isolate 6244_13_B5_4576 (HIV)
[21] = molecular target: HIV Env of isolate Du156.12 (HIV)
[22] = molecular target: HIV Env of isolate ZM197M.PB7 (HIV)
[23] = molecular target: HIV Env of isolate ZM214M.PL15 (HIV)
[24] = molecular target: HIV Env of isolate ZM233M.PB6 (HIV)
[25] = molecular target: HIV Env of isolate ZM249M.PL1 (HIV)
[26] = molecular target: HIV Env of isolate ZM109F.PB4 (HIV)
[27] = molecular target: HIV Env of isolate ZM135M.PL10a (HIV)
[28] = molecular target: HIV Env of isolate CAP45.2.00.G3 (HIV)
[29] = molecular target: HIV Env of isolate CAP210.2.00.E8 (HIV)
[30] = molecular target: HIV Env of isolate HIV-0013095-2.11 (HIV)
[31] = molecular target: HIV Env of isolate HIV-16845-2.22 (HIV)
[32] = molecular target: HIV Env of isolate Ce0393_C3 (HIV)
[33] = molecular target: HIV Env of isolate Ce1176_A3 (HIV)
[34] = molecular target: HIV Env of isolate Ce2010_F5 (HIV)
[35] = molecular target: HIV Env of isolate Ce1172_H1 (HIV)
[36] = molecular target: HIV Env of isolate BF1266.431a (HIV)
[37] = molecular target: HIV Env of isolate 246F_C1G (HIV)
[38] = molecular target: HIV Env of isolate 7030102001E5(Rev-) (HIV)
HIV Env of isolate CNE20 = HIV Env of isolate CNE20 (HIV)
HIV Env of isolate CNE17 = HIV Env of isolate CNE17 (HIV)
HIV Env of isolate CNE30 = HIV Env of isolate CNE30 (HIV)
[39] = molecular target: HIV Env of isolate Q769.d22 (HIV)
[40] = molecular target: HIV Env of isolate 191955_A11 (HIV)
[41] = molecular target: HIV Env of isolate 191084_B7-19 (HIV)

B1: ePGT121.15.H1.L1 (antibody, V domains shown)
VH: QMQLQESGPGLVKPGETLSLTCSVSGASISSSYWSWLRETPGKGLEWIGYTHHSGDTNYAPSLKSRVHLGLHPSKNQVSLSLTSVTAADTAVYYCARTLHGRRIYGVVAFNEWFTYFYWEVWGNGTQVTVSS
VL: SDISVAPGETVRISCGGESIGSRAVQWYQHRAGQAPKLIIYNNQDRPPGIPERFSGSPDIDFGTTATLTITNVEAGDEATYYCHIWDSRRPTNWVFGGGTTLTVL
[1]
  neutralization IC50: 17.8 ng/mL
[2]
  neutralization IC50: > 50000 ng/mL
[3]
  neutralization IC50: > 50000 ng/mL
HIV Env of isolate CNE8
  neutralization IC50: > 50000 ng/mL
[4]
  neutralization IC50: 2.1 ng/mL
[5]
  neutralization IC50: 0.7 ng/mL
[6]
  neutralization IC50: 0.4 ng/mL
[7]
  neutralization IC50: 2.9 ng/mL
[8]
  neutralization IC50: 12400 ng/mL
[9]
  neutralization IC50: > 50000 ng/mL
[10]
  neutralization IC50: 1.7 ng/mL
[11]
  neutralization IC50: 0.3 ng/mL
[12]
  neutralization IC50: 0.8 ng/mL
[13]
  neutralization IC50: 0.2 ng/mL
[14]
  neutralization IC50: 0.3 ng/mL
[15]
  neutralization IC50: 0.2 ng/mL
[16]
  neutralization IC50: 0.1 ng/mL
[17]
  neutralization IC50: 0.3 ng/mL
[18]
  neutralization IC50: 0.1 ng/mL
[19]
  neutralization IC50: 0.9 ng/mL
[20]
  neutralization IC50: 3.7 ng/mL
[21]
  neutralization IC50: 0.1 ng/mL
[22]
  neutralization IC50: > 50000 ng/mL
[23]
  neutralization IC50: 0.6 ng/mL
[24]
  neutralization IC50: 12.4 ng/mL
[25]
  neutralization IC50: 2.4 ng/mL
[26]
  neutralization IC50: 10700 ng/mL
[27]
  neutralization IC50: 132 ng/mL
[28]
  neutralization IC50: 5020 ng/mL
[29]
  neutralization IC50: 5.2 ng/mL
[30]
  neutralization IC50: 0.1 ng/mL
[31]
  neutralization IC50: 7.2 ng/mL
[32]
  neutralization IC50: > 50000 ng/mL
[33]
  neutralization IC50: 0.4 ng/mL
[34]
  neutralization IC50: > 50000 ng/mL
[35]
  neutralization IC50: 0.3 ng/mL
[36]
  neutralization IC50: > 50000 ng/mL
[37]
  neutralization IC50: 1.3 ng/mL
[38]
  neutralization IC50: 0.2 ng/mL
HIV Env of isolate CNE20
  neutralization IC50: 0.3 ng/mL
HIV Env of isolate CNE17
  neutralization IC50: 3.7 ng/mL
HIV Env of isolate CNE30
  neutralization IC50: 2.4 ng/mL
[39]
  neutralization IC50: > 50000 ng/mL
[40]
  neutralization IC50: > 50000 ng/mL
[41]
  neutralization IC50: 0.9 ng/mL

B2: PGT-121 (antibody, V domains shown)
VH: QMQLQESGPGLVKPSETLSLTCSVSGASISDSYWSWIRRSPGKGLEWIGYVHKSGDTNYSPSLKSRVNLSLDTSKNQVSLSLVAATAADSGKYYCARTLHGRRIYGIVAFNEWFTYFYMDVWGNGTQVTVSS
VL: SDISVAPGETARISCGEKSLGSRAVQWYQHRAGQAPSLIIYNNQDRPSGIPERFSGSPDSPFGTTATLTITSVEAGDEADYYCHIWDSRVPTKWVFGGGTTLTVLG
[1]
  neutralization IC50: 44200 ng/mL
[2]
  neutralization IC50: > 50000 ng/mL
[3]
  neutralization IC50: > 50000 ng/mL
HIV Env of isolate CNE8
  neutralization IC50: > 50000 ng/mL
[4]
  neutralization IC50: > 50000 ng/mL
[5]
  neutralization IC50: 3 ng/mL
[6]
  neutralization IC50: 4 ng/mL
[7]
  neutralization IC50: 8 ng/mL
[8]
  neutralization IC50: > 50000 ng/mL
[9]
  neutralization IC50: > 50000 ng/mL
[10]
  neutralization IC50: 9 ng/mL
[11]
  neutralization IC50: 2 ng/mL
[12]
  neutralization IC50: 302 ng/mL
[13]
  neutralization IC50: 24 ng/mL
[14]
  neutralization IC50: 15 ng/mL
[15]
  neutralization IC50: 7 ng/mL
[16]
  neutralization IC50: 26 ng/mL
[17]
  neutralization IC50: 2 ng/mL
[18]
  neutralization IC50: 4 ng/mL
[19]
  neutralization IC50: 3 ng/mL
[20]
  neutralization IC50: 61 ng/mL
[21]
  neutralization IC50: 4 ng/mL
[22]
  neutralization IC50: > 50000 ng/mL
[23]
  neutralization IC50: 460 ng/mL
[24]
  neutralization IC50: 3690 ng/mL
[25]
  neutralization IC50: > 50000 ng/mL
[26]
  neutralization IC50: 8640 ng/mL
[27]
  neutralization IC50: 716 ng/mL
[28]
  neutralization IC50: 1630 ng/mL
[29]
  neutralization IC50: 26300 ng/mL
[30]
  neutralization IC50: > 50000 ng/mL
[31]
  neutralization IC50: 3970 ng/mL
[32]
  neutralization IC50: > 50000 ng/mL
[33]
  neutralization IC50: 13 ng/mL
[34]
  neutralization IC50: > 50000 ng/mL
[35]
  neutralization IC50: 11 ng/mL
[36]
  neutralization IC50: > 50000 ng/mL
[37]
  neutralization IC50: 41 ng/mL
[38]
  neutralization IC50: 9 ng/mL
HIV Env of isolate CNE20
  neutralization IC50: 1 ng/mL
HIV Env of isolate CNE17
  neutralization IC50: 7600 ng/mL
HIV Env of isolate CNE30
  neutralization IC50: > 50000 ng/mL
[39]
  neutralization IC50: > 50000 ng/mL
[40]
  neutralization IC50: > 50000 ng/mL
[41]
  neutralization IC50: 11 ng/mL
